The source of these data is patent US20090082262.

Data set [1] has as its system T1, full size HCC-1 (HCC-1, residues 1-74).
T1 sequence: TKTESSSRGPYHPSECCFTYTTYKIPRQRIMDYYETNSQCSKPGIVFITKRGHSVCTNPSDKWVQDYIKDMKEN

Data set [2] has as its system T2, PHC-1 (HCC-1[9-74]).
T2 sequence: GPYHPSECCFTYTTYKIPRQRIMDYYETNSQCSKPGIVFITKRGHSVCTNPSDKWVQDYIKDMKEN

Take trypsin: in data set [1], the “tryptic digestion, 1 h, enzyme/substrate-ratio (w/w) 1/100” value is given as “One cleavage product, the newly identified biologically active peptide PHC-1, comprising residues 9-74 of the HCC-1 precursor sequence, with the molecular mass of 7795 Da was obtained”.

For urokinase, the “proteolytic degradation, activity after 90 min at 37° C with 10 or 100 IU urokinase” value in data set [2] was “No change of activity was observed after an incubation of 90 min at 37 °C”. Moreover, the “proteolytic cleavage; product analysed by RP-HPLC, CCR5 aequorin assay, mass spectrometry and Edman degradation” value in data set [1] is “identifying PHC-1 and full size HCC-1 as the major compounds in these fractions”.
